The target in test [1] is previously unrecognized receptor on the RBC (receptor for PfRH5) (human (endogenous in erythrocytes)). The test can be described thus: other fluorescence titration; […] fit for identical independent binding sites.
Test [2] shares this target. The test can be described thus: other fluorescence titration; competition: 2 µM rhodamine-rRH5 with 25 µl packed RBC ghosts in PBS and increasing unlabeled rRH5 (0.1 to 400 µM), 2 h at RT, bound labeled rRH5 by spectrofluorimetry.

On to “rhodamine-labeled rRH5 (domain or fragment)”, for which the Kd (commonly the concentration at which binding is half-saturated) in test [1] came to 12 µM.
As to “recombinant PfRH5 protein (rRH5), 143-aa fragment Asn-31 to Val-174, GST fusion (domain or fragment)”, in test [2], the IC50 (usually the concentration that gives 50% inhibition) came out at 50 µM.
